According to patent publication US9580487B2, “Method of treating stomach or bowel-related disorders by administering glucagon-like-peptide-2 (GLP-2) analogues” (Zealand Pharma A/S, priority 2005, dated 2017):
“Also recorded” adds a separate entry of the source. No end group written: not given here.

Assays:
[1] = Chemical stability testing: incubation in HCl, NaOH, H2O2 or NH4HCO3 at 40° C., remaining purity by RP-HPLC; type: physicochemical; conditions: for Stability during acid hydrolysis (in words): 0.1 M HCl, 12 days; for Stability during acid hydrolysis (in words) / Purity H2O2 0.5% 3 days / Purity HCl 0.1M 12 days / Purity NH4HCO3 0.1M 6 days: 40° C.; for Purity H2O2 0.5% 3 days / Purity HCl 0.1M 12 days / Purity NH4HCO3 0.1M 6 days: 2 mg/ml, relative to the purity at T=0; for Purity H2O2 0.5% 3 days / Purity HCl 0.1M 12 days: RP-HPLC; for Purity NH4HCO3 0.1M 6 days: pH 8, RP-HPLC
Procedure: The GLP-2 analogues were dissolved in purified water and subsequently diluted in solutions containing HCl, NaOH, H2O2 or NH4HCO3. The solutions were incubated at 40° C. to produce hydrolysis, deamidation and oxidation products. The samples were analyzed by RP-HPLC and the percentage of remaining intact compound was determined as a measure for the relative stability. The major degradation products were tentatively identified by LC-MS.
The GLP-2 analogues tested and the reference Gly^2-GLP-2, ZP1559 (SEQ ID NO:54), were dissolved in water and subsequently diluted into solutions containing HCl, NaOH, H2O2 or NH4HCO3. The samples were incubated at 40° C. to generate hydrolysis, deamidation and oxidation products, respectively. The compounds were analysed by RP-HPLC for purity of the original main peak and by LC-MS for confirmation of the identity by mass of the main peak and major degradation products.
The GLP-2 analogues were first dissolved in MQW to a concentration of 4 mg/ml and then further diluted in the stress solutions at a 1:1 ratio (e.g. 125 μl plus 125 μl). The final concentrations were 2 mg/ml of the GLP-2 analogues for stress conditions with 0.1 M HCl, 0.01M NaOH, 0.1 M NH4HCO3 and 0.5% H2O2, respectively.
The solutions were incubated at 40° C. in the dark and then diluted in Eluent A to a concentration of 0.5 mg/ml (addition of 750 μl) prior to analyses by RP-HPLC and by LC-MS.
The RP-HPLC analyses were performed on an Agilent Series 1100 HPLC system under control of the ChemStation (Revision A.08.03 [847]) software from Agilent Technologies, Inc. The raw data and the results of the peak integration were deposited on the ChemStore C/S server by the use of Agilent Technologies Revision B01.03 software.
The results are shown in Table 9 as the compound purity measured by RP-HPLC after incubation under stress conditions. This purity is a measure for the remaining intact compound after incubation in stress solutions, relative to the purity measured a T=0.

[2] = system: male C57BL mice; experiment: Dose-response effect on intestinal growth (SI mass, SI-Colon Sensitivity Index, colon and stomach mass); type: in vivo; conditions: 5-405 nmol/kg s.c. b.i.d. for three days
Procedure: Values are means±SEM. *: P<0.05 relative to the equimolar dose of [Gly2]GLP-2 (SEQ ID NO:54).
FIG. 2 is a set of graphs showing full dose-response data of four small intestine selective compounds (compound nos. 1846 (SEQ ID NO:34), 1855 (SEQ ID NO:43), 1848 (SEQ ID NO:36), 1858 (SEQ ID NO:46)) on the Small Intestine (SI)-to-Colon Sensitivity Index mice relative to the non-selective reference compound [Gly2]GLP-2 (SEQ ID NO:54). Compounds were administered by subcutaneous injection b.i.d. for three days in C57BL mice at the following doses: 0 (vehicle), 5, 15, 45, 135, 405 nmol/kg (n=6/dose group). Responses at each dose level were compared with responses obtained at the same dose level in pair-treated mice treated with the non-selective reference compound [Gly2]GLP-2 (SEQ ID NO:54). The SI-Colon Sensitivity Index was calculated as SI-mass relative to colon mass and the Sensitivity Index at each dose level was normalized to the response observed with the non-selective reference compound [Gly2]GLP-2 (SEQ ID NO:54). […] Values are means±SEM. *: P<0.05 relative to the equimolar dose of [Gly2]GLP-2.
FIG. 4 is a set of graphs showing full dose-response data of three small intestine selective compounds (compound nos. 1857 (SEQ ID NO:45), 1820 (SEQ ID NO:10), and 1849 (SEQ ID NO:37)) on the Small Intestine (SI)-to-Colon Sensitivity Index mice relative to the non-selective reference compound [Gly2]GLP-2 (SEQ ID NO:54). Compounds were administered by subcutaneous injection b.i.d. for three days in C57BL mice at the following doses: 0 (vehicle), 5, 15, 45, 135, 405 nmol/kg (n=6/dose group). Responses at each dose level were compared with responses obtained at the same dose level in pair-treated mice treated with the non-selective reference compound [Gly2]GLP-2 (SEQ ID NO:54). The SI-Colon Sensitivity Index was calculated as SI-mass relative to colon mass and the Sensitivity Index at each dose level was normalized to the response observed with the non-selective reference compound [Gly2]GLP-2 (SEQ ID NO:54). […] Values are means±SEM. *: P<0.05 relative to the equimolar dose of [Gly2]GLP-2 (SEQ ID NO:54).
Compounds were administered by subcutaneous injection b.i.d. for three days in C57BL mice at the following doses: 0 (vehicle), 5, 15, 45, 135, 405 nmol/kg (n=6/dose group). […] Values are means±SEM. *: P<0.05 relative to the vehicle.
The dose-response effect of 1820 (SEQ ID NO:10), 1855 (SEQ ID NO:43), ZP1846 (SEQ ID NO:34), 1858 (SEQ ID NO:46), 1849 (SEQ ID NO:37), 1848 (SEQ ID NO:36), and 1857 (SEQ ID NO:45) on small intestinal mass was determined in male C57BL mice. Individual groups (n=6) of mice were given 5, 15, 45, 135 or 405 nmol/kg of each compound, s.c, twice daily for three consecutive days. For comparison purposes other groups of animals were given either equimolar doses of [Gly2]GLP-2 (SEQ ID NO:54) or vehicle (phosphate buffered saline, pH 7.4) in the same dosing regimen. Twenty-four hours after the last dose of compound had been given the mice were sacrificed and the small intestine (from the pylorus to the cecum emptied and weighed to determine the effect on small intestinal mass.

Substance	Stability during acid hydrolysis (in words) [1]	Purity H2O2 0.5% 3 days [1]	Purity HCl 0.1M 12 days [1]	Purity NH4HCO3 0.1M 6 days [1]	SI-Colon Sensitivity Index (SI mass relative to colon mass) relative to [Gly2]GLP-2 [2]	Small intestinal mass (SI-BW ratio), maximal response relative to [Gly2]GLP-2 [2]	Growth stimulation of small intestine, colon and stomach mass ([2]; vs vehicle)	Stability under accelerated oxidation (in words) ([1]; 0.5% H2O2, 40° C., 3 days)
[Gly2, Glu3, Leu10, Ser11, Ala16,24,28]hGLP-2(1-33)-NH2 [Compound 1857]	tendency of slightly higher stability	59%	86%	96%	increased maximal small intestinal sensitivity relative to [Gly2]GLP-2; also recorded: increased selectivity for causing growth of the small intestine relative to the colon	maximal responses that were significantly greater than [Gly2]GLP-2	–	–
[Gly2, Glu3, Ser8,11, Leu10, Ala16,24,28]hGLP-2(1-33)-(Lys)6-NH2 (HGEGSFSSELSTILDALAARDFIAWLIATKITDKKKKKK-NH2) [Compound 1846]	–	64%	70%	82%	increased maximal small intestinal sensitivity relative to [Gly2]GLP-2; also recorded: increased selectivity for causing growth of the small intestine relative to the colon	maximal responses that were significant greater than [Gly2]GLP-2	–	–
[Gly2, Glu3, Thr5, Ser8, Leu10, Ala11,16,24,28]hGLP-2(1-33)-(Lys)6-NH2 (HGEGTFSSELATILDALAARDFIAWLIATKITDKKKKKK-NH2) [Compound 1848]	–	68%	63%	93%	increased maximal small intestinal sensitivity relative to [Gly2]GLP-2; also recorded: increased selectivity for causing growth of the small intestine relative to the colon	maximal responses that were significant greater than [Gly2]GLP-2	only produced dose-dependent growth stimulation in the small intestine	–
[Gly2, Glu3, Thr5, Ser8, Leu10, Ala11,16,24,28]hGLP-2(1-33)-NH2 [Compound 1855]	tendency of slightly higher stability	14%	85%	97%	increased maximal small intestinal sensitivity relative to [Gly2]GLP-2; also recorded: increased selectivity for causing growth of the small intestine relative to the colon	maximal responses that were significant greater than [Gly2]GLP-2	–	unexplainable low stability
